Legend:
HSV-1 (KOS) gL86 = test: HSV-1 entry into natural target cells (HeLa, human corneal fibroblasts), cells pre-incubated with CN (Example 9); format: cell-based, herpes simplex virus type-1; conditions: for HSV-1 entry (β-galactosidase activity, OD 410): 25 pfu/cell, 6 h
Method: In this experiment (A) HeLa and (B) primary cultures of human corneal fibroblasts (CF) were used. They were either pre-treated with contortrostatin (CN) at indicated concentrations or mock-treated (positive control [+]) with phosphate saline buffer for 90 min at room temperature. β-galactosidase-expressing recombinant virus herpes simplex virus type-1 (HSV-1; KOS) gL86 (25 pfu/cell) was used to infect cells. Uninfected cells were kept as negative control (−). After 6 h, the cells were washed, permeabilized and incubated with […] expressed from the input viral genome. The enzymatic activity was measured at an optical density of 410 nm (OD 410). Error bars represent SD. a=significant difference from controls and/or treatments (P<0.05, t-test).
To confirm blocking activity of CN on HSY-I entry, HeLa and primary cultures of human CF were used. It has been shown that HeLa and human CF naturally express gD receptors. […] This raises the possibility that the effect of CN can be more pronounced in the natural target cells and that it may not depend on gD receptors. […] The inhibitory effect is likely dependent on the type of integrins expressed on the surface of cells.

CMV Ad169 = test: CMV plaque assay in RPE cells (Example 5); format: cell-based, Cytomegalovirus; conditions: virus pre-incubated with 1 mg/ml for 120 min, MOI 0.01, 3 days
Method: Viral plaque assay. Confluent layers of RPE cells in glass bottom dishes were infected with CMV Ad169 strain in the presence and absence of CN at 0.01 PFU per cell for 2 hrs. This was followed by extensive but gentle washing three times with DMEM media followed by feeding cells with DMEM media. The cells were then incubated at 37° C. for thee days. Cells were then fixed using fixative buffer after 3 days for 30-45 min. The cells were washed three times with 1X PBS before RPE cells stained for Giemsa satin for additional 45 minutes. This was followed by 10 times washing with 1 X PBS to remove excess stain. The number of plaques formed were then visualized and quantified as indicated. In another protocol, confluent layers of HeLa cells (approximately 10^6) in six-well dishes were infected with HSV-1 (804) strain at 0.01 PFU/celI in presence and absence of CN for 2 h at 37° C. After removal of inoculum, monolayers were overlaid with DMEM comaining 2.5% heat-inactivated calf serum and incubated at 37° C. At 24 h, the cells were fixed by using fixative buffer (2% formaldehyde and 0.2% glutaradehyde) at room temperature for 20 min, followed by Giemsa staining for 45 min. The cells were again washed 5× in PBS and the numbers of plaques were counted. The images were taken by using Nikon D-Eclipse-C1 microscope (Nikon Instruments Inc., Melville, N.Y., USA).
A wild type strain of CMV Ad169 was used. The virus was again either pre-incubated with 1×PBS (control) or with CN at 1 mg/ml for 120 min at room temperature. After 120 min of incubation the two pools of viruses were incubated on target retinal pigment epithelial (RPE) cells at MOI (multiplicity of infection; MOI) of 0.01 for additional 2 hrs at 37° C. This was followed by washing to remove unbound viruses and feeding cells with fresh DMEM media. The plates were kept for 3 days before the plaque formation was visually observed (upper panels) and quantified (lower panel) after fixing cells with buffer (FIG. 9). […] Based on visual evidence, the plaque formation was quantified in each group and was scored (lower panel).

[1] = system: HSV-2 (333 gJ-reporter virus); test: HSV-2 infection of HeLa cells, ONPG assay (Example 4); format: cell-based; conditions: virus pre-incubated; starting concentration 1 mg/ml
Method: (§1) In this experiment different clinical strains of HSV-1 (F, G, and MP strains of HSV-1 [37] at 25 pfu/cell) were either pre-incubated with 1×PBS (control) or with CN at the concentrations indicated in FIG. 8, panel A for 90 min at room temperature. After 90 min of incubation the two pools of viruses were incubated with Nectin-1 receptor expressing CHO Igβ cells that express β-galactosidase upon viral entry as described. The viral infection blocking was measured by ONPG assay (FIG. 8, panel A). Similar experiment was conducted using Lac Z encoded HSV-2 (333 gJ-reporter virus). HSV-2 is a genital herpes virus. […] Each value shown is the mean of three or more determinations (±SD).

[2] = system: HSV-1 strains F, G and MP; test: Entry of clinical HSV-1 strains into nectin-1 CHO Ig8 cells, cells pre-incubated with CN (Example 10); format: cell-based, herpes simplex virus type-1; conditions: nectin-1 CHO Ig8 cells pre-incubated with 10 μM, MP at 25 pfu/cell, 6 h
Method: (§2) (A) In this experiment nectin-1 Chinese hamster ovary (CHO) Ig8 cells that express β-galactosidase upon viral entry were pre-treated with 10 μM contortrostatin (CN; indicated as treated [Tr]) or mock treated (indicated as untreated [Un]) with phosphate saline buffer for 90 min at room temperature followed by infection using clinical isolates of herpes simplex virus type-1 (HSV-1; F,G, and MP at 25 pfu/cell) for 6 h. The viral entry blocking was measured by o-nitro-phenyl-β-o-galactopyranoside (ONPG) assay as previously described. Error bars represent SD. (B) Confluent monolayers of HeLa cells were infected with HSV-1 (804) strain at 0.01 PFU/cell in presence (panel i) and absence (panel ii) of CN for 2 h at 37° C. Viral replication in HeLa cells were visualized 24 h post-infection for plaques. a=significant differences from corresponding mock-treated controls (P<0.05, t-test).
The next question was to evaluate the broader significance of CN as an anti-HSV agent. Therefore the ability of CN to block viral entry in different clinical virulent strains of HSV-1 (F, G and MP) was tested. Here, nectin-1 expressing CHO Ig8 cells that express β-galactosidase upon viral entry were used. The cells were preincubated with CN at 10 μM and then infected with clinical isolates of HSV-1.

[3] = system: HSV-1 strains F, G, and MP; test: Infection of nectin-1 CHO Igβ cells by clinical HSV-1 strains, virus pre-incubated (Example 4); format: cell-based, herpes simplex virus type-1; conditions: MP at 25 pfu/cell pre-incubated 90 min
Method: as §1

HSV-1 (804) strain = test: HSV-1 plaque assay in HeLa cells (Example 11); format: cell-based, herpes simplex virus type-1; conditions: 10 μM, 0.01 PFU/cell, 24 h post-infection
Method: as §2
Viral plaque assay. Confluent layers of RPE cells in glass bottom dishes were infected with CMV Ad169 strain in the presence and absence of CN at 0.01 PFU per cell for 2 hrs. This was followed by extensive but gentle washing three times with DMEM media followed by feeding cells with DMEM media. The cells were then incubated at 37° C. for thee days. […] The number of plaques formed were then visualized and quantified as indicated. […] The cells were again washed 5× in PBS and the numbers of plaques were counted. […]

B1: contortrostatin (protein)
chain: DAPANPCCDAATCKLTTGSQCADGLCCDQCKFMKEGTVCRRARGDDLDDYCNGISAGCPRNPFHA
What does the source list for B1?
HSV-1 entry (β-galactosidase activity, OD 410) (HSV-1 (KOS) gL86; HeLa cells pre-incubated 90 min): significant blocking of HSV-1 entry; concentration at which strong inhibition of entry was observed (HSV-1 (KOS) gL86; natural target cells (HeLa and CF)): < 1 µM; HSV-1 entry (β-galactosidase activity, OD 410) (HSV-1 (KOS) gL86; primary human corneal fibroblasts (CF) pre-incubated 90 min): significant blocking of HSV-1 entry; CMV cytopathic effect (CPE) (CMV Ad169): significantly lower cytopathic effect; CMV plaque formation (CMV Ad169): significantly reduced the plaque formation; size of CMV plaques (CMV Ad169): small compared to untreated CMV virions; HSV-2 infection of HeLa cells (dose response, ONPG assay) [1]: blocks infection; entry of clinical HSV-1 strains (ONPG assay) [2]: blocked the entry of different strains of HSV-1; HSV-1 infection blocking activity across viral strains (ONPG assay) [3]: not viral-strain specific; HSV-1 plaque formation (HSV-1 (804) strain): blocked the plaque formation
